Consider four molecules from publication PMC6599047, “Optimal composition and position of histidine-containing tags improves biodistribution of ^99mTc-labeled DARPin G3” (Scientific Reports, 2019).

Where a chain is given by its changes, count along the chain named.

This test concerns the target T1, human epidermal growth factor receptor (HER2) (human (endogenous in SKOV3, BT474, …, UniProt P04626 23-1255)).
T1 construct: HER2, endogenous on the human cancer cell lines SKOV3, BT474 (high expression) and DU145 (low expression); source: endogenous, on living SKOV3, BT474 and DU145 cells
Nature of the test: radioligand binding; LigandTracer, real time, living SKOV3 cells, room temperature; 0.5 and 2 nM radiolabeled G3 variant, then medium replaced for dissociation; fitted to a one-to-two Langmuir binding model (TraceDrawer); duplicates. The note with it: one partner purified.

B1: [99mTc]Tc(CO)3-H6-G3 (DARPin G3 with a hexahistidine tag at the N-terminus) (designed binder)
chain: MRGSHHHHHHGSDLGKKLLEAARAGQDDEVRILMANGADVNAKDEYGLTPLYLATAHGHLEIVEVLLKNGADVNAVDAIGFTPLHLAAFIGHLEIAEVLLKHGADVNAQDKFGKTAFDISIGNGNEDLAEILQKLN
modifications: [99mTc]Tc(CO)3 on the histidine-containing tag (site-specific radiolabel)
notes: whole chain as printed; source: E. coli BL21(DE3), purified (HisTrap HP, MonoQ); not shown: His6, N-terminal, kept
Consider B1, for which the “KD1 (high affinity interaction of the one-to-two fit)” value (“KD1” below) was 90 ± 5 pM and the “KD2 (low affinity interaction of the one-to-two fit)” value (“KD2” below) was 3.3 ± 0.2 nM.

B2: [99mTc]Tc(CO)3-(HE)3-G3 (DARPin G3 with a HEHEHE tag at the N-terminus) (designed binder)
chain: B1 chain with H6E, H8E, H10E
modifications: [99mTc]Tc(CO)3 on the histidine-containing tag (site-specific radiolabel)
notes: whole chain as printed; source: E. coli BL21(DE3), purified (HisTrap HP without imidazole in lysate and wash, MonoQ); not shown: (HE)3 (HEHEHE), N-terminal, kept
B2: the “KD1” value is 96 ± 3 pM and the “KD2” value came to 1.2 ± 0.1 nM.

B3: [99mTc]Tc(CO)3-G3-H6 (DARPin G3 with a hexahistidine tag at the C-terminus) (designed binder)
chain: MDLGKKLLEAARAGQDDEVRILMANGADVNAKDEYGLTPLYLATAHGHLEIVEVLLKNGADVNAVDAIGFTPLHLAAFIGHLEIAEVLLKHGADVNAQDKFGKTAFDISIGNGNEDLAEILQKLNGSHHHHHH
modifications: [99mTc]Tc(CO)3 on the histidine-containing tag (site-specific radiolabel)
notes: whole chain as printed; source: E. coli BL21(DE3), purified (HisTrap HP, MonoQ); not shown: His6, C-terminal, kept
With B3, the “KD1” value turned out to be 118 ± 38 pM and the “KD2” value came to 2.5 ± 1.5 nM.

B4: [99mTc]Tc(CO)3-G3-(HE)3 (DARPin G3 with a HEHEHE tag at the C-terminus) (designed binder)
chain: DLGKKLLEAARAGQDDEVRILMANGADVNAKDEYGLTPLYLATAHGHLEIVEVLLKNGADVNAVDAIGFTPLHLAAFIGHLEIAEVLLKHGADVNAQDKFGKTAFDISIGNGNEDLAEILQKLNGSHEHEHE
modifications: [99mTc]Tc(CO)3 on the histidine-containing tag (site-specific radiolabel)
notes: whole chain as printed (after removal of SUMO at QIGG/DLGKK); source: E. coli BL21(DE3), made as a His6-SUMO fusion, purified (HisTrap HP, cut with ULP1, HisTrap flow-through, MonoQ); not shown: (HE)3 (HEHEHE), C-terminal, kept
As for B4, the “KD1” value worked out at 89 ± 11 pM and the “KD2” value came to 1.8 ± 0.5 nM.
